Measured values published in US10577428B2, “Anti-factor XI monoclonal antibodies and methods of use thereof” (Oregon Health & Science University, priority 2007, dated 2020).

Experiments:
FXI = target: T1, FXI (Homo sapiens, UniProt P03951); assay: Flow chamber coagulation studies (blood perfused over collagen); assay type: cell-based
T1 construct: antibody 1A6 recognizes Factor XI in human and non-human primate plasma; from tissue; host or cells: normal human plasma (A4); whole human blood or reconstituted FXII-deficient human blood (A9)
Method: Glass capillary tubes were coated with 100 μg/ml Horm collagen (Nycomed Arzenmittel, Munich, Germany). Whole human blood was collected into corn trypsin inhibitor (CTI, 40 μg/ml), discarding the first 1 ml to limit any activation of the coagulation pathway, and then perfused through the tubes at a shear rate of 265 s^−1 for 10 min. […] In separate experiments, washed platelets and RBCs were processed as described (McCarty et al. (2006) J. Thromb. Haemost. 4:1367-1378), and then mixed with FXII deficient human plasma (<1% FXII, Haematologic Technologies, Essex Junction, Vt.) to reach a hematocrit of 40% and platelet count of 300×10^3/μl. […] Recalcified FXII deficient human plasma without RBCs or platelets was also perfused over collagen. Images were obtained by DIC microscopy after three minutes of perfusion with modified Tyrodes buffer.
When whole human blood, which was anticoagulated with CTI to block the function of FXIIa, was perfused over collagen at arterial shear (265 s^−1), platelets were deposited in large aggregates which became enveloped by forming fibrin strands (FIG. 7B). […] The outcome was similar when using reconstituted FXII deficient blood, with or without CTI. […] No fibrin was formed when recalcified FXII deficient human plasma was perfused over collagen. For these experiments, human whole blood, anticoagulated with CTI (40 μg/ml) to inhibit FXIIa, or reconstituted FXII deficient human blood was perfused through collagen coated capillary tubes at a shear rate of 265 s^−1 for 10 minutes. […] Images were obtained via Kohler-illuminated Nomarski differential interference contrast (DIC) microscopy with a Zeiss Axiovert 200M microscope using a Zeiss 63× oil immersion 1.40 NA plan-apochromat lens. Images were captured following three minutes of perfusion with modified Tyrodes buffer using a Zeiss AxioCam with Slidebook 4.0 (Intelligent Imaging Innovations, Inc., Denver, Colo., USA). All experiments were performed at 37° C. Each image in FIG. 7B is representative of 2-3 experiments.

[1] = tested on: normal baboon plasma (NBP); assay: aPTT and PT in normal baboon plasma in vitro; assay type: biochemical; details: 0-40 nM
[2] = CTI (40 μg/ml) whole human blood, aXIMab 20 μg/ml, collagen, 265 s^-1, 10 min
[3] = FXII-inhibited or deficient human blood under flow (FIG. 7B)

B1: aXIMab: neutralizing murine IgG/kappa anti-human FXI monoclonal antibody from hybridoma 1A6; binds A3 domain; VH SEQ ID NO:3, VL SEQ ID NO:5 (antibody, listed as Mus musculus, V domains shown)
VH: QVTLKESGPGILKPSQTLSLTCSFSGFSLSTSGMGVGWIRQPSGKGLEWLAHIWWDDDKYYNPSLKSQLTISKDTSRNQVFLKITSVDAADTATYYCARKRSSVVAHYYAMDYWGQGTSVTVSS
VL: DIVLTQSPASLAVSLGQRATISCKASQSVDYDGDSYLNWYQQKPGQPPKLLIYAASNLESGIPARFSGSGSGTDFTLNIHPVEEEDAATYYCQQSNGDPWTFGGGTKLEIK
FXI; [2]
  Fibrin deposition: noticeably attenuated
  platelet adhesion: modest reduction
FXI; [3]
  platelet accumulation: reduced
  visible fibrin formation: prevented
FXI; reconstituted FXII deficient human blood, with or without CTI, aXIMab 20 μg/ml
  fibrin formation: interrupted fibrin formation
[1]
  prothrombin time (PT): without affecting
[1]; concentration-dependent
  activated partial thromboplastin time (aPTT): prolonged
